In assay [1] the target is MHC/IGF2BP3-001 tetramer (human). The assay is described as follows: tetramer staining, flow cytometry of RNA-electroporated CD8+ T-cells. (In general: Flow cytometry measures light scatter and fluorescence of single cells or particles in a stream.)
Assay [2] deals with MHC/NYESO1-001 tetramer. The assay is described as follows: tetramer staining, flow cytometry of RNA-electroporated CD8+ T-cells (unrelated-peptide tetramer).
The target of assay [3] is MHC/IGF2BP3-001 tetramer (human). As to the kind of experiment: tetramer binding by flow cytometry, lentivirally transduced primary T-cells, donor 1.
The target is the same in assay [4]. As to the kind of experiment: tetramer binding by flow cytometry, lentivirally transduced primary T-cells, donor 2.

The record followed here is patent publication US20170312350A1.

B1: TCR R10P1A7 (TCR, V domains shown)
V domain 1: GEDVEQSLFLSVREGDSSVINCTYTDSSSTYLYWYKQEPGAGLQLLTYIFSNMDMKQDQRLTVLLNKKDKHLSLRIADTQTGDSAIYFCAESKETRLMFGDGTQLVVKP
V domain 2: GAVVSQHPSWVICKSGTSVKIECRSLDFQATTMFWYRQFPKQSLMLMATSNEGSKATYEQGVEKDKFLINHASLTLSTLTVTSAHPEDSSFYICSARAGGHEQFFGPGTRLTVLE
Take B1: the % IGF2BP3-001 TET-positive primary CD8+ T-cells in assay [1] is 6.78%. Besides, the % NYESO1-001 TET-positive primary CD8+ T-cells in assay [2] turned out to be 1.53%.

B2: TCR R10P1A7 expressed from lentiviral construct 1863R (MSCV-R10P1A7A-2A-R10P1A7B-WPRE) (TCR, V domains shown)
V domain 1: B1 V domain 1
V domain 2: B1 V domain 2
On to B2, for which, in assay [3], the % of CD3+ Tet+ was 2.3% and the % of CD8+ Tet+ turned out to be 3.93%. In assay [4], this molecule returned a % of CD3+ Tet+ of 0.99% and a % of CD8+ Tet+ of 1.79%.

B3: TCR R10P1A7 expressed from lentiviral construct 1864R (MSCV-R10P1A7B-2A-R10P1A7A-WPRE) (TCR, V domains shown)
V domain 1: B1 V domain 1
V domain 2: B1 V domain 2
For B3, in assay [3], the % of CD3+ Tet+ was 15.2% and the % of CD8+ Tet+ amounted to 22%. In assay [4], this molecule gave a % of CD3+ Tet+ of 8.12% and a % of CD8+ Tet+ of 11.7%.
